Consider three molecules from patent US20190016816A1 (APTEVO RESEARCH AND DEVELOPMENT, published 2019).

The target in test [1] is T1, cynomolgus 5T4 on cells (cynomolgus macaque, UniProt Q4R8Y9 35-420).
T1 construct: whole, on cells; also called CHO-K1/cynomolgus 5T4 transfectants
T1 sequence (looked up): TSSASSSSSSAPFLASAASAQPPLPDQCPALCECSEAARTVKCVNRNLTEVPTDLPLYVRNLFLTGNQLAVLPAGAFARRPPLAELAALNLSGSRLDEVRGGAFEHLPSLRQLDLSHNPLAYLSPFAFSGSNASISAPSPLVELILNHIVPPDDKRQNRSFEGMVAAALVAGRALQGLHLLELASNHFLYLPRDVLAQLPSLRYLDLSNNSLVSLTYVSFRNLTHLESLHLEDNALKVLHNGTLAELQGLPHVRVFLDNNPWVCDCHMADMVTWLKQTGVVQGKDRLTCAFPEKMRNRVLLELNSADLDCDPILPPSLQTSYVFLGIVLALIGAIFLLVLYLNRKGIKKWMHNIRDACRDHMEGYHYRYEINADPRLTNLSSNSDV
The test can be described thus: flow cytometry, CHO-K1/cynomolgus 5T4 transfectants, labelled anti-human IgG secondary, MFI (mean). The method, then:
Binding studies were performed by standard flow cytometry-based staining procedures two cell lines expressing 5T4:CHO-K1 cells (obtained from Alligator) transduced with human or cynomolgus macaque 5T4 and SKOV-3 human ovarian adenocarcinoma cells which express (human) 5T4. All labeling and washes were performed in U-bottom 96-well plates in saline buffer with 0.1% BSA and 2 mM EDTA. Cell were plated at approximately 100,000 cells per well and incubated with a range of 100 nM to 0.05 nM concentrations of test molecules in […], for 30 minutes on ice. Cells were washed three times then incubated for another 30 min on ice with fluorescently-labeled secondary polyclonal antibody, F(ab′)² goat anti-human IgG (Jackson ImmunoResearch Laboratories). The cells were then washed twice and the samples acquired in a BD LSRII or a Symphony A3 flow cytometer. The sample files were analyzed using FlowJo software; the mean fluorescence intensity (MFI-mean) or median fluorescence intensity (MFI-median) of the live population of cells in each well was calculated after gating on live cells (forward vs side scatter). Nonlinear regression analysis to determine EC₅₀ values was performed in GraphPad Prism 6® graphing and statistics software.

The target in test [2] is T2, human CD137 on cells (human, UniProt Q07011 24-255).
T2 construct: also called 4-1BB; TNFRSF9 (CHO-K1/human CD137 cells)
T2 sequence (Q07011 24-255 limits assumed): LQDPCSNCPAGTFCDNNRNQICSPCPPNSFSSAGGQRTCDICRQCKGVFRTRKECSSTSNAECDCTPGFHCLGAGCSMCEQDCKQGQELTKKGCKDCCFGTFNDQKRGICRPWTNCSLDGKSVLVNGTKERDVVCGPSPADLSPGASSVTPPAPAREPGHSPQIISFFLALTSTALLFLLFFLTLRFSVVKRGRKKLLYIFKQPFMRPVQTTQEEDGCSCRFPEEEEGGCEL
The test can be described thus: flow cytometry, CD8 T cells gated from CD3-stimulated human PBMC, biotinylated antibody + streptavidin-APC, exp 2, n=3 donors. The method, then: Following 48 h of incubation with or without CD3, human and cynomolgus PBMC were harvested, pooled, recounted and diluted in FACS buffer (PBS+0.5% BSA, 0.05% NaN₃) to a concentration of 5×10⁶ cells/mL. 50 μL (0.25×10⁶ cells) of cell solution was added to a 96-well FACS staining plate (Falcon #351190). Following 10 min of Fc-blocking in RT using Beriglobin (hIgG, 200 μg/mL), cells were washed in FACS buffer and then incubated for 1 h in 4° C. with 100 μL of the biotinylated ALG.APV-210 or negative control. […] Cells were analysed for ALG.APV-210 binding using flow cytometry by gating on viable, single cells expressing CD3 and CD8. MFI values (FMO subtracted) from 2 independent experiments as well as normalized pooled data from 2 experiments and EC₅₀-values were determined and plotted using GraphPad Prism 7, non-linear regression log (agonist) vs. normalized response—variable slope, n=6 donors/group.
In ELISA tests, the binding of biotinylated ALG.APV-210 to CD137 was similar to that of the non-biotinylated ALG.APV-210 (0.6 nM vs. 0.7 nM). The binding (EC₅₀) of the biotinylated ALG.APV-210 to its immunomodulatory target CD137 when expressed on activated primary human and cynomolgus CD8 T cells from CD3 stimulated PBMC was assessed and compared between the two species as well as to unstimulated cells. […]
For orientation: In flow cytometry, cells or beads pass a laser one at a time.

B1: ALG.APV-210 (bispecific antibody)
chain: EVQLLESGGGLVQPGGSLRLSCAASGFTFSHGSMYWVRQAPGKGLEWVSSISSGSGSTYYADSVKGRFTISHDNSKNTLYLQMNSLRAEDTAVYYCARSSYYGSYYSIDYWGQGTLVTVSSGGGGSGGGGSGGGGSGGGGSDIQMTQSPSSLSASVGDRVTITCRASQSISSYLNWYQQKPGKAPKLLIYAASSLQSGVPSRFSGSGSGTDFTLTISSLQPEDFATYYCQQYYDNLPTFGQGTKLEIKEPKSSDKTHTCPPCPAPEAAGAPSVFLFPPKPKDTLMISRTPEVTCVVVDVSHEDPEVKFNWYVDGVEVHNAKTKPREEQYNSTYRVVSVLTVLHQDWLNGKEYKCAVSNKALPAPIEKTISKAKGQPREPQVYTLPPSRDELTKNQVSLTCLVKGFYPSDIAVEWESNGQPENNYKTTPPVLDSDGSFFLYSKLTVDKSRWQQGNVFSCSVMHEALHNHYTQKSLSLSPGSGGGGSGGGGSGGGGSPSEVQLLESGGGLVQPGGSLRLSCAASGFTFSSYAMSWVRQAPGKCLEWVSAISGSGGSTYYADSVKGRFTISRDNSKNTLYLQMNSLRAEDTAVYYCARYYGGYYSAWMDYWGQGTLVTVSSGGGGSGGGGSGGGGSGGGGSDIQMTQSPSSLSASVGDRVTITCRASQSISSFLNWYQQKPGKAPKLLIYAASSLQSGVPSRFSGSGSGTDFTLTISSLQPEDSATYYCQQTYGYLHTFGCGTKLEIKR
notes: Optimized ADAPTIR scFv-Fc-scFv homodimer with stabilizing disulfide in the 1210 scFv; also called 5T4-CD137 bispecific antibody
As for B1, in test [1], it took 7.2 nM to reach a half-maximal effect (EC50) and the “Maximum MFI” value came out at 23800.

B2: biotinylated ALG.APV-210 (bispecific antibody)
chain: B1 chain
notes: also called ALG.APV-210 (biotinylated for FACS detection)
Consider B2, for which the “EC50 (read off the curve)” value in test [2] was about 0.2 nM.

B3: ALG.APV-187 (bispecific antibody)
chain: EVQLLESGGGLVQPGGSLRLSCAASGFTFSHGSMYWVRQAPGKGLEWVSSISSGSGSTYYADSVKGRFTISHDNSKNTLYLQMNSLRAEDTAVYYCARSSYYGSYYSIDYWGQGTLVTVSSGGGGSGGGGSGGGGSGGGGSDIQMTQSPSSLSASVGDRVTITCRASQSISSYLNWYQQKPGKAPKLLIYAASSLQSGVPSRFSGSGSGTDFTLTISSLQPEDFATYYCQQYYDNLPTFGQGTKLEIKSSEPKSSDKTHTCPPCPAPEAAGAPSVFLFPPKPKDTLMISRTPEVTCVVVDVSHEDPEVKFNWYVDGVEVHNAKTKPREEQYNSTYRVVSVLTVLHQDWLNGKEYKCAVSNKALPAPIEKTISKAKGQPREPQVYTLPPSRDELTKNQVSLTCLVKGFYPSDIAVEWESNGQPENNYKTTPPVLDSDGSFFLYSKLTVDKSRWQQGNVFSCSVMHEALHNHYTQKSLSLSPGSGGGGSGGGGSGGGGSPSEVQLLESGGGLVQPGGSLRLSCAASGFTFSSYAMSWVRQAPGKCLEWVSAISGSGGSTYYADSVKGRFTISRDNSKNTLYLQMNSLRAEDTAVYYCARYYGGYYSAWMDYWGQGTLVTVSSGGGGSGGGGSGGGGSGGGGSDIQMTQSPSSLSASVGDRVTITCRASQSISSFLNWYQQKPGKAPKLLIYAASSLQSGVPSRFSGSGSGTDFTLTISSLQPEDSATYYCQQTYGYLHTFGCGTKLEIKR
notes: Optimized ADAPTIR scFv-Fc-scFv homodimer with stabilizing disulfide in the 1210 scFv
For B3, in test [1], the EC50 amounted to 8.5 nM and the “Maximum MFI” value stood at 26000.

For orientation: EC50 means the midpoint of the concentration-response curve. Low readings indicate an effect from little substance, high ones a need for much substance. By EC50 (read off the curve) is commonly meant the concentration at which the effect is half-maximal.
